Measured values taken from paper PMC6080931 (The Journal of Cell Biology, 2018).
Values belong to the molecule of their own block, whether it stands above or below them.

Experiments:
[1] = target: Atg2 (untagged, overproduced, of the purified Atg2–Atg18 complexes) (S. cerevisiae) (UniProt P53855); experiment: liposome flotation assay
[2] = target: Atg2 (untagged, overproduced, of the purified Atg2–Atg18 complexes) (S. cerevisiae, UniProt P53855 1-1592); experiment: liposome flotation assay
Atg2 (untagged, overproduced, of the purified Atg2–Atg18 complexes), sequence (P53855 whole entry, one chain of several): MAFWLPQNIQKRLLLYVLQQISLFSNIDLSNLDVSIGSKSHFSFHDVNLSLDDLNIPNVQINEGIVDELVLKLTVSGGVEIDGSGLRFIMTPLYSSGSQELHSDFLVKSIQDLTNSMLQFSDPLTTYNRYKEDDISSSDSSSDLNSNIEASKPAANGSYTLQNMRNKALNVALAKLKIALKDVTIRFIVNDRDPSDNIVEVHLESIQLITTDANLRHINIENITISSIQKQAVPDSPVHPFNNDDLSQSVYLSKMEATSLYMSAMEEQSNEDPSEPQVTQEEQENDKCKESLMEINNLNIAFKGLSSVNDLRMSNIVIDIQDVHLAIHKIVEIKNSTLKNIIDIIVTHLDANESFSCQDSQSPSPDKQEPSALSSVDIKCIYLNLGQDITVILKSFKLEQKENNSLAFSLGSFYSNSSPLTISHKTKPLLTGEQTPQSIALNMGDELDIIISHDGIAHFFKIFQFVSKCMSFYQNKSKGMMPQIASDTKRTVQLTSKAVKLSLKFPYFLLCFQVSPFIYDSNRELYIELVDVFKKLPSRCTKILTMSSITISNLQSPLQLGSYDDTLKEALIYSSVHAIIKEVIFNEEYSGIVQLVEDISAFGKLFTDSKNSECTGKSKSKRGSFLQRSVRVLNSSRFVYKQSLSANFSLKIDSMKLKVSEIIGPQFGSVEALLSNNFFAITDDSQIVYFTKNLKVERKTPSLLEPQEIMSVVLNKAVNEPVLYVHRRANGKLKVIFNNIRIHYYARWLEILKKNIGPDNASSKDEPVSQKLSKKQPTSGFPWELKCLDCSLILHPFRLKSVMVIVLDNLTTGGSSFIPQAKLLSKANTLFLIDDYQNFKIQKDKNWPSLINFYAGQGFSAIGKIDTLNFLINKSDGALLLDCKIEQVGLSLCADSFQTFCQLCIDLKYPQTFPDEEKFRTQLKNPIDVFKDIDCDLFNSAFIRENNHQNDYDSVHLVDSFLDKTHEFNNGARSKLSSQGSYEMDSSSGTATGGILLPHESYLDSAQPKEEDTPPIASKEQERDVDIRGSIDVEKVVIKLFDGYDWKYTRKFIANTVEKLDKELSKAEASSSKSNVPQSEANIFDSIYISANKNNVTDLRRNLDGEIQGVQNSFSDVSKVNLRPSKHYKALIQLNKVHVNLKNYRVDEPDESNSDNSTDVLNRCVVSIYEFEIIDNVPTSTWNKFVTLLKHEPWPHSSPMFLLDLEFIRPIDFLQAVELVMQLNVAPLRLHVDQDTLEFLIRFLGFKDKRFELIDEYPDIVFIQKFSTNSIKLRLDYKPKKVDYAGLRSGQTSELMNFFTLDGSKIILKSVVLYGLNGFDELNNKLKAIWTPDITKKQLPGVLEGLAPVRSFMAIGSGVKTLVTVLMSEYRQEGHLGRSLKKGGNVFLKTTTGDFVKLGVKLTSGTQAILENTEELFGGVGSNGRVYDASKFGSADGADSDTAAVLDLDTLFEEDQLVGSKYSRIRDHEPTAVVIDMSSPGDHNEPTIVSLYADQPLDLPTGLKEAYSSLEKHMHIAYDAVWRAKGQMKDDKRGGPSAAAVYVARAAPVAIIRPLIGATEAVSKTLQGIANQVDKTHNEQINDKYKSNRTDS

Atg2 (untagged, overproduced, of the purified Atg2–Atg18 complexes) (S. cerevisiae), sequence (P53855 whole entry, one chain of several): as above

percent of Atg18^FAAG on liposomes with Atg9 [1]: < 58%
Molecule: Atg18^FAAG-TAP (overproduced, mutant unable to bind PtdIns3P) (from UniProt P43601 1-500) (natural protein)

stoichiometry N [2]: ~1 ratio
B1: Atg18-TAP (overproduced, of the purified Atg2–Atg18 complexes) (natural protein, S. cerevisiae, UniProt P43601 1-500, looked up)
chain: MSDSSPTINFINFNQTGTCISLGTSKGFKIFNCEPFGKFYSEDSGGYAIVEMLFSTSLLALVGIGDQPALSPRRLRIINTKKHSIICEVTFPTSILSVKMNKSRLVVLLQEQIYIYDINTMRLLHTIETNPNPRGLMAMSPSVANSYLVYPSPPKVINSEIKAHATTNNITLSVGGNTETSFKRDQQDAGHSDISDLDQYSSFTKRDDADPTSSNGGNSSIIKNGDVIVFNLETLQPTMVIEAHKGEIAAMAISFDGTLMATASDKGTIIRVFDIETGDKIYQFRRGTYATRIYSISFSEDSQYLAVTGSSKTVHIFKLGHSMSNNKLDSDDSNMEEAAADDSSLDTTSIDALSDEENPTRLAREPYVDASRKTMGRMIRYSSQKLSRRAARTLGQIFPIKVTSLLESSRHFASLKLPVETNSHVMTISSIGSPIDIDTSEYPELFETGNSASTESYHEPVMKMVPIRVVSSDGYLYNFVMDPERGGDCLILSQYSILMD
